Reference: patent US20200283482A1, “BICYCLIC PEPTIDE LIGAND PRR-A CONJUGATES AND USES THEREOF” (BicycleRD Limited, priority 2017, published 2020)
Starred links: 1 amine or outer side, 2 acyl side, 3 side chain; linkers in the order of their positions; H or OH if unused. Positions of bridges follow the written chain, without caps; N, C: chain ends. Non-standard residues stand in square brackets, D forms with d. Residues, ends and D or L forms follow the SMILES beside them. *: point of attachment. X1 = CCOCc1nc2c(NC(=O)OCCSSC(C)CCC(=O)*)nc3ccccc3c2n1CC(C)(C)O; 1Nal = N[C@@H](Cc1cccc2ccccc12)C(=O)O; TBMB = c1c(C[*:1])cc(C[*:3])cc1C[*:2]; Tle = CC(C)(C)[C@H](N)C(=O)O; βAla = NCCC(=O)O; Sar = CNCC(=O)O

Key:
[1] = Plasma pharmacokinetics of Bicycle conjugates in CD-1 mice; assay type: in vivo; conditions: 3 mg/kg IV, male CD-1 mice
Experimental: Male CD-1 mice were dosed with 3 mg/kg of Bicycle Conjugate formulated in 25 mM Histidine HCl, 10% sucrose pH 7 via tail vein injection. Serial bleeding (about 80 μL blood/time point) was performed via submadibular or saphenous vein at each time point. All blood samples were immediately transferred into prechilled microcentrifuge tubes containing 2 μL K2-EDTA (0.5M) as anti-coagulant and placed on wet ice.

human TLR7 = molecular target: T1, human TLR7 (Homo sapiens, UniProt Q9NYK1); assay: Human TLR7 receptor activation, HEK293 reporter cell line; assay type: cell-based; conditions: HEK293 reporter cells, 16 hours
T1 construct: host or cells: HEK293 reporter cell line
T1 sequence (Q9NYK1 27-1049): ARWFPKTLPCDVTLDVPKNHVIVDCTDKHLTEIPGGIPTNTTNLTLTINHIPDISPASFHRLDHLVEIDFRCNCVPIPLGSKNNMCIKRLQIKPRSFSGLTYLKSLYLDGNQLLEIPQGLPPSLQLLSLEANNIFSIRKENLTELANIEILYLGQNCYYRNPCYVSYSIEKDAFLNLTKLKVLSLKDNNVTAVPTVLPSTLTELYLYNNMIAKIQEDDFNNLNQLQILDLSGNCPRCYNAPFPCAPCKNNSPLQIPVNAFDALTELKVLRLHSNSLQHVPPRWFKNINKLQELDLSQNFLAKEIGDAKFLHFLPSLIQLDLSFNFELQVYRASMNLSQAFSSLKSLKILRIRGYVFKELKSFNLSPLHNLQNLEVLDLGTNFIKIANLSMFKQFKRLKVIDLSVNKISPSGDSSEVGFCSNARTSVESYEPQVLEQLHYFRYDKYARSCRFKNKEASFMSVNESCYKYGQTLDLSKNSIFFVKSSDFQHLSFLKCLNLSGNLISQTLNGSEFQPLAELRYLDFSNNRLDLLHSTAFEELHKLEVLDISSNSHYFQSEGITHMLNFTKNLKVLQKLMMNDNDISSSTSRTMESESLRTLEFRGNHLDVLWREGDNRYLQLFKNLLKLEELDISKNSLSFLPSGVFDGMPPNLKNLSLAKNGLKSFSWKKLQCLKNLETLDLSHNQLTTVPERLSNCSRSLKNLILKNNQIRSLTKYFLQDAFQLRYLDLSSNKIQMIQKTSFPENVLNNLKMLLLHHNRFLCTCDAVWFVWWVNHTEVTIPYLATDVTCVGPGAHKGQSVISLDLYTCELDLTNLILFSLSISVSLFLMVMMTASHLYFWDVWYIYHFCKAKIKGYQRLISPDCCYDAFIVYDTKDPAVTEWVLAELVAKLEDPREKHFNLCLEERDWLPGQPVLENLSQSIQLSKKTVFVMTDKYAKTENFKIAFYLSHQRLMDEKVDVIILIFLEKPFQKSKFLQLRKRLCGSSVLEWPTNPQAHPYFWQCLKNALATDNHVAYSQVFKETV
Experimental: Compounds were tested for their activity to activate human TLR7 and TLR8 receptors using HEK293 reporter cell lines engineered to express respective receptors in accordance to manufacturer's instructions (InvivoGen). […] Incubation was for 16 hours at 37° C. and […]. Absorption at 655 nm was read on […]. Data was fitted using PRISM.

Plasma stability, mouse = assay type: in vitro ADME; conditions: pH 7.4; mouse plasma, 2 μM, 37° C.; read-out: T1/2 (mouse)
Plasma stability, human = assay type: in vitro ADME; conditions: pH 7.4; human plasma, 2 μM, 37° C.; read-out: T1/2 (human)

CCOCc1nc2c(NC(=O)OCCSSC(C)CCC(=O)NCCC(=O)N(C)CC(=O)N(C)CC(=O)N(C)CC(=O)N(C)CC(=O)N(C)CC(=O)N(C)CC(=O)N(C)CC(=O)N(C)CC(=O)N(C)CC(=O)N(C)CC(=O)N[C@@H](C)C(=O)N[C@H]3CSCc4cc5cc(c4)CSC[C@H](NC(=O)[C@@H](C)NC(=O)[C@H](Cc4cccc6ccccc46)NC(=O)[C@H](CCC(=O)O)NC(=O)[C@H](CC(N)=O)NC(=O)[C@@H](C)NC3=O)C(=O)N[C@@H](CCC(=O)O)C(=O)N[C@@H](CC(=O)O)C(=O)N[C@@H](Cc3ccccc3)C(=O)N[C@@H](Cc3ccc(O)cc3)C(=O)N[C@@H](CC(=O)O)C(=O)N[C@@H](C(C)(C)C)C(=O)N[C@H](C(N)=O)CSC5)nc3ccccc3c2n1CC(C)(C)O (stereo partly shown) [I-8] ({X1-βAla}-[Sar][Sar][Sar][Sar][Sar][Sar][Sar][Sar][Sar][Sar]AC[dA]NE[1Nal][dA]CEDFYD[Tle]C-NH2; linker 12-18-25 via TBMB)
systemic elimination [1]: rapid systemic elimination
hTLR7 activation potency versus naked payload resiquimod (human TLR7): considerably reduced potency or inactivity
half-life at 2 μM (Plasma stability, mouse): < 2 h
half-life at 2 μM (Plasma stability, human): 2 to 6 h
